Assay results taken from patent publication EP4480964A1, “TRANSFERRIN RECEPTOR-BINDING MOLECULES, CONJUGATES THEREOF AND THEIR USES TO PREVENT OR TREAT MUSCULAR DISEASES” (Vect-Horus, priority 2023, dated 2024).

B1: B8-siSOD1m: VHH-Oligo conjugate of VHH B8 and siSOD1m (conjugate)
VHH: EVQLVESGGGVVQPGGSLRLSCAASGEIFSINFMRWYRQAPGKQREWVAGFTRDGSTNYPDSAKGRFTISRDNAKNTVYLQIDSLKPEDTAVYYCYMLDTWGQGTQVTVSS
modifications: left off: things letters cannot carry; small tags and cut ends
B2: C5-siSOD1m: VHH-Oligo conjugate of VHH C5 and siSOD1m (conjugate)
VHH: EVQLVESGGGVVQPGGSLKLSCVASGTDFSINFIRWYRQAPGKQREFVAGFTATGNTNYADSMKGRFTISRDNTKNAVYLQIDSLKPEDTAVYYCYMLDKWGQGTQVTVSS
modifications: left off: things letters cannot carry; small tags and cut ends
B3: B8-siSOD1h: VHH-Oligo conjugate of VHH B8 and siSOD1h (conjugate)
VHH: B1 VHH
modifications: left off: things letters cannot carry; small tags and cut ends
B4: C5-siSOD1h: VHH-Oligo conjugate of VHH C5 and siSOD1h; Figure 12 legend: VHH is C5 (conjugate)
VHH: B2 VHH
modifications: left off: things letters cannot carry; small tags and cut ends

Assays:
mTfR = target: T1, mTfR (Mus musculus, UniProt Q62351); assay: Competition assay with fluorescent reference C5-Alexa680 on living Neuro-2a cells; type: binding; conditions: cells expressing murine TfR (Neuro-2a), C5-Alexa680 100 nM, 3 hrs at 37°C; Ki similar or lower than free VHHs
T1 construct: living cells expressing the receptor of interest, namely murine neuroblastoma Neuro-2a cells (N2a); endogenous in cells; host or cells: Neuro-2a (N2a) murine neuroblastoma cells
T1 sequence (Q62351 whole entry): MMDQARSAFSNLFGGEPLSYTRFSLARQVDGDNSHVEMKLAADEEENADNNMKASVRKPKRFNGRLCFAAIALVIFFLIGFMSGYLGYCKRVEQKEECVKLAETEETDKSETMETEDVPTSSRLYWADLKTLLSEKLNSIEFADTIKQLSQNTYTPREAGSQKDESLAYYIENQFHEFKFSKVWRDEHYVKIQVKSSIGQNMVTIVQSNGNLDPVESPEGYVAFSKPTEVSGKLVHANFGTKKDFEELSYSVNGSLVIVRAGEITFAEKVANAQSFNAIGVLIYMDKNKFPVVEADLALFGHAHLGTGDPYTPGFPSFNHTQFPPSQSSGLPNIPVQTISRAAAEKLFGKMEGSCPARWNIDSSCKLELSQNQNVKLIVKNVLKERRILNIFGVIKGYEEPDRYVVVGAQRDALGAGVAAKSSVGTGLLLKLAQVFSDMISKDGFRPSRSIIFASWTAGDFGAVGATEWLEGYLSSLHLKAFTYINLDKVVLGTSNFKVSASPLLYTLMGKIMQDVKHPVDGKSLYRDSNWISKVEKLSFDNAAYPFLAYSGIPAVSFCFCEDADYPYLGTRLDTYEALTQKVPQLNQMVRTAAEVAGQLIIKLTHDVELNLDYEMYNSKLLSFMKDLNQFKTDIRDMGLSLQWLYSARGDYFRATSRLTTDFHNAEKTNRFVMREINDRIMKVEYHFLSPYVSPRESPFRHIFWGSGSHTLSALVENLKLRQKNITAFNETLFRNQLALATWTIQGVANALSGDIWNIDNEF
Protocol: (§1) The binding of VHH-Oligo conjugates to mTfR, rhTfR and hTfR was evaluated using a competition assay on living cells expressing the receptor of interest, namely murine neuroblastoma Neuro-2a cells (N2a), CHO cells genetically engineered by the inventors to stably express the macaque rhesus TfR fused to the eGFP protein in C-terminal (CHO-rhTfR-GFP cells), or human breast ductal carcinoma MCF-7 cells, respectively. MCF-7 and N2a cells were grown in Dulbecco's Modified Eagle Medium (DMEM) GlutaMAX supplemented with 10% v/v FBS in 5% CO2 at 37°C. CHO-rhTfR-GFP cells were grown in Ham F12 GlutaMAX supplemented with 10% v/v FBS in 5% CO2 at 37°C. Cells were seeded two days before experiments in 96-well plates at a density of 50.000 cells/well. On the day of the experiment, free VHHs or VHH-Oligo conjugates diluted at various concentrations in DMEM supplemented with 1% bovine serum albumin (BSA) (MCF-7 and N2a cells) or in Ham F12 supplemented with 1% BSA (CHO-rhTfR-GFP cells) were co-incubated at various concentrations on each cell line during 3 hrs at 37°C with a subsaturating concentration of the fluorescent reference compound C5-Alexa680 (100 nM on N2a and CHO-rhTfR-GFP cell lines, 10 nM on MCF-7 cells). After treatment, cells were washed with D-PBS and dissociated by incubating with Trypsin/EDTA for 5 mins at 37°C, before the addition of cold culture media (4°C) to inhibit Trypsin activity. Resuspended cells were transferred in a 96-deepwell plate (V-bottom) containing 1% fetal bovine serum (FBS) / 0.02% sodium azide in phosphate-buffered saline (PBS) and then centrifuged for 5 min at 2000 rpm at 4°C. After removing the supernatant, 5 mM EDTA in D-PBS and 4% paraformaldehyde (PFA) (v/v 1:1) were added into wells to fix cells for 15 min at room temperature. PFA was removed by centrifugation (5 min, 3000 rpm, 4°C) and cells were resuspended with 5 mM EDTA in D-PBS. Then the cellular A680-associated fluorescence signal was quantified using an Attune™ NxT flow cytometer (Thermo Fisher Scientific) equipped with Attune™ NxT v3.1.2. Experimental data (experimental triplicates) were fitted with GraphPad Prism® software using a nonlinear fit to determine the apparent Ki inhibition constants. Graphs of Figure 1 show representative inhibition curves and tables show means ± SD of at least 2 independent experiments.

rhTfR = assay: Competition assay with fluorescent reference C5-Alexa680 on living CHO-rhTfR-GFP cells; type: binding; conditions: cells expressing macaque rhesus TfR (CHO-rhTfR-GFP), C5-Alexa680 100 nM, 3 hrs at 37°C; Ki similar or lower than free VHHs
Protocol: as §1

hTfR = target: T2, hTfR (Homo sapiens, UniProt P02786); assay: Competition assay with fluorescent reference C5-Alexa680 on living MCF-7 cells; type: binding; conditions: cells expressing human TfR (MCF-7), C5-Alexa680 10 nM, 3 hrs at 37°C; Ki similar or lower than free VHHs
T2 construct: or human breast ductal carcinoma MCF-7 cells, respectively; endogenous in cells; host or cells: MCF-7 human breast ductal carcinoma cells
T2 sequence (P02786 whole entry): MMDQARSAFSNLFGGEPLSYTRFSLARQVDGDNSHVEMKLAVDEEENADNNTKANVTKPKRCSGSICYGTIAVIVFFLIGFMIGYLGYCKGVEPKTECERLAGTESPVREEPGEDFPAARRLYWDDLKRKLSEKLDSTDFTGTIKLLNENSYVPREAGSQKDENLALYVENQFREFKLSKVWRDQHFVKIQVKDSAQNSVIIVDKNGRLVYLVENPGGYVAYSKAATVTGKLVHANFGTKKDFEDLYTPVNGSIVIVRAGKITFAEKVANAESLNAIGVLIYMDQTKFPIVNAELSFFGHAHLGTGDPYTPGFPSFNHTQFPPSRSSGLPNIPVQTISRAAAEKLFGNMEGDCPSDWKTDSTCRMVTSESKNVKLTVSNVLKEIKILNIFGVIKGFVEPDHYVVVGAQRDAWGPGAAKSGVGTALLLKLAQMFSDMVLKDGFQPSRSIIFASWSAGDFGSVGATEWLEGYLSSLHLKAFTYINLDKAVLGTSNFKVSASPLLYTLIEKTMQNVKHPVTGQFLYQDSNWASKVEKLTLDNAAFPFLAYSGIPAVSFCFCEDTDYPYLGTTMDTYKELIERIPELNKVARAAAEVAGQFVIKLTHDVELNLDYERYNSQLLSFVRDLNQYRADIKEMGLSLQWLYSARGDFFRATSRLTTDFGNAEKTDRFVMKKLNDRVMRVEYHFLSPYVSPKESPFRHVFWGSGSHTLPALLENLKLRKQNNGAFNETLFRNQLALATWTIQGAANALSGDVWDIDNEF
Protocol: as §1

hSOD1 mRNA = assay: Free uptake gene silencing (RT-qPCR) in human cell lines; type: cell-based; conditions: 3 days, various human cell lines (Figure 2A)
Protocol: Human cell lines MCF-7 (breast ductal carcinoma cells), Igrov-1 (ovarian cancer cells) and MIA PaCa-2 cells (pancreatic cancer cells) and the murine neuroblastoma cell line Neuro-2a were grown in DMEM GlutaMAX supplemented with 10% v/v FBS in 5% CO2 at 37°C. For free uptake experiments, cells were seeded in 96-well plates at a density of 2.000 cells/well. Twenty-four hours later, the medium was removed, and cells were further incubated during 3 days in DMEM supplemented with 1% v/v FBS containing various concentrations of free or conjugated oligos. […] Relative RNA expression levels were quantified by RT-qPCR using the TaqMan™ Fast Universal PCR Master Mix (2X) no AmpErase™ UNG kit (Applied Biosystems) and commercially available TaqMan™ probes for murine SOD1, human SOD1 or human MALAT-1 genes (Applied Biosystems). Expression data were analyzed using the DDCq method normalized to the expression of reference RpL 13 or GAPDH genes, based on raw quantification cycle (Cq) values (Bustin et al.) and are presented as mRNA levels relative to untreated cells. Experimental data (experimental triplicates) are presented as means ± standard deviation (SD) and were analysed with GraphPad Prism® software using a three-parameter log(inhibitor) vs. response nonlinear regression to determine the IC50. […]

SOD1 mRNA = assay: In vivo mRNA knock-down by VHH-siSOD1h conjugate in non-human primates; parameters: species or system olive baboons (Papio Anubis)
Protocol: VHH-siSOD1h conjugates targeting the human and non-human primate (NHP) SOD1 gene were assessed for their ability to mediate SOD1 mRNA knock-down in muscle tissues of olive baboons (Papio Anubis). PBS vehicle (control) or a TfR-binding VHH-siSOD 1h conjugate was administered as a single intravenous (IV infusion, 30 min) in olive baboons (males, 10-17-month-old, 2.6-4.5kg) at the dose of 5 mg/kg (siRNA molar equivalent). At indicated times following administration, approximately 100 mg samples of gastrocnemius, quadriceps and tibialis anterior muscle were withdrawn under general anesthesia, snap-frozen in 10 vol. ofNucleoProtect RNA stabilization reagent (Macherey-Nagel) and stored at -20°C. […] RNA samples were analyzed and dosed using a Fragment Analyzer RNA kit in a Fragment Analyzer system (Agilent). Relative RNA expression levels were quantified by RT-qPCR using the TaqMan™ Fast Universal PCR Master Mix (2X) no AmpErase™ UNG kit (Applied Biosystems) and commercially available TaqMan™ probes for […] and RpL13 genes (Applied Biosystems). Expression data were analyzed using the DDCq method normalized to the expression of the reference RpL13 gene, based on raw quantification cycle (Cq) values (Bustin et al.). The results are expressed as means ± standard error of the mean (SEM) and are presented as mRNA levels relative to the control animals injected with PBS. […]

Molecule | inhibition of the binding and uptake of the reference compound (mTfR) | inhibition of the binding and uptake of the reference compound (rhTfR) | inhibition of the binding and uptake of the reference compound (hTfR) | effect on hSOD1 mRNA levels (hSOD1 mRNA) | knock-down of SOD1 mRNA (SOD1 mRNA; all muscle tissues tested (gastrocnemius, quadriceps, tibialis anterior), single IV infusion 5 mg/kg (siRNA molar equivalent) (Figure 12)) [%] | duration of knock-down (SOD1 mRNA; single IV infusion 5 mg/kg (siRNA molar equivalent))
B1 | concentration-dependent inhibition | concentration-dependent inhibition | concentration-dependent inhibition |  |  | 
B2 | concentration-dependent inhibition | concentration-dependent inhibition | concentration-dependent inhibition |  |  | 
B3 | concentration-dependent inhibition | concentration-dependent inhibition | concentration-dependent inhibition | potent and concentration-dependent hSOD1 mRNA downregulation |  | 
B4 | concentration-dependent inhibition | concentration-dependent inhibition | concentration-dependent inhibition | potent and concentration-dependent hSOD1 mRNA downregulation | 60 | more than three months
